Experiments:
[1] = target: v5-tagged full-length GIGYF2 (1–1,320) (human); assay: proximity ligation
[2] = target: v5-tagged full-length GIGYF2 (1–1,320) (human); assay: proximity ligation; cells cotransfected with v5-GIGYF2, HA-4EHP and FLAG-empty vector; fixed 24 h after transfection; PLA with v5 and HA antibodies

Sequence of v5-tagged full-length GIGYF2 (1–1,320) (human) (Q6Y7W6 2-1299): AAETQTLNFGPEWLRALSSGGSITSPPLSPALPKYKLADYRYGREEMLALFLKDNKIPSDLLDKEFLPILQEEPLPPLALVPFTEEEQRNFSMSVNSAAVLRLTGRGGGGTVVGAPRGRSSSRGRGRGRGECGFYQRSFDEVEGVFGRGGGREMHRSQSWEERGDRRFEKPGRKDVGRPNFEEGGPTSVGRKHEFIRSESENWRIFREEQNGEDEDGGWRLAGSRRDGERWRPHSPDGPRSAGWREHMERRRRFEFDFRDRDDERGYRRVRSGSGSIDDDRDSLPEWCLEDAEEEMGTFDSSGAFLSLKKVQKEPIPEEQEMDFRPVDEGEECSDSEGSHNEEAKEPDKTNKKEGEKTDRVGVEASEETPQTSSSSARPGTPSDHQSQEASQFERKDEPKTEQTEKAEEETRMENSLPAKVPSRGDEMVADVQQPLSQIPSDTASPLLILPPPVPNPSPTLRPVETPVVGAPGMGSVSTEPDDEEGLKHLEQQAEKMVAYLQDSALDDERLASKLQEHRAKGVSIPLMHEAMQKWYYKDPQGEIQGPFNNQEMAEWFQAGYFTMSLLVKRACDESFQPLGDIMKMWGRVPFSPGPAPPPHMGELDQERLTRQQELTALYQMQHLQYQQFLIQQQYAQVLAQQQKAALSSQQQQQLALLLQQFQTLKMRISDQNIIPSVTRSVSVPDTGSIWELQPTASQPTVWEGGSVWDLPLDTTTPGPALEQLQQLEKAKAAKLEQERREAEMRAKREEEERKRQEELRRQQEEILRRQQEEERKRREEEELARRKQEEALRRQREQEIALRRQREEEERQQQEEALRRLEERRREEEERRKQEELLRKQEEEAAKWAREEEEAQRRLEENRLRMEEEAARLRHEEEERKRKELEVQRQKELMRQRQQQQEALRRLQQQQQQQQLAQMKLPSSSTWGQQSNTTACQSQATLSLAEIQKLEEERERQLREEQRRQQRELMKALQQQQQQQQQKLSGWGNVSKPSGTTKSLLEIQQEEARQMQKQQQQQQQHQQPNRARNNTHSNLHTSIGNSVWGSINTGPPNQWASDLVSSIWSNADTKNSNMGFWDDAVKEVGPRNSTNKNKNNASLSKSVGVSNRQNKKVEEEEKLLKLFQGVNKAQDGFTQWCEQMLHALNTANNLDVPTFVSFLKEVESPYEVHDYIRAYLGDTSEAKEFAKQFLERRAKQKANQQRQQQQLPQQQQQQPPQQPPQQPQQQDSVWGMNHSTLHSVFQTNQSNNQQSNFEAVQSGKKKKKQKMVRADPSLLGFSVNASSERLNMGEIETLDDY

“HA-tagged 4EHP (from UniProt O60573 1-245)” was tested, and the PLA punctate per cell (punctate per cell) [1] was 61 and the PLA punctate per cell (punctate per cell) [2] was 19.8.

From publication PMC9371684
